# Assay results reported in publication PMC9065602, “Characterization of Polymer Degrading Lipases, LIP1 and LIP2 From Pseudomonas chlororaphis PA23” (Frontiers in Bioengineering and Biotechnology, 2022).
# System: CCCCCCCC(=O)Oc1ccc([N+](=O)[O-])cc1
# Assay: purified protein
# Type: biochemical, Pseudomonas chlororaphis
# Conditions: 0.1-3.0 mM substrate, optimal conditions (pH 8.0, 40 °C)
substance,measurement,value
LIP2 (Pseudomonas chlororaphis),Km,286 µM
